This passage reports stoichiometry N results from paper PMC7058448.

The assay concerns the target gp120-gp41 protomer of cleaved gp160, HIV-1 isolate 92UG037.8 (HIV-1 isolate 92UG037.8 (clade A)). Description: cryo-EM structure.

Usually stoichiometry N stands for a count of units in the complex or per binding partner. Substance “gp120-gp41 protomer of cleaved gp160, HIV-1 isolate 92UG037.8 (complex)” came in with a stoichiometry N of 3.
